Target: FcγRIIIa (UniProt P08637)
Test: SPR as in Example 4; glyco-enriched samples of belantamab

FcγRIIIa, sequence (P08637 17-208 limits assumed): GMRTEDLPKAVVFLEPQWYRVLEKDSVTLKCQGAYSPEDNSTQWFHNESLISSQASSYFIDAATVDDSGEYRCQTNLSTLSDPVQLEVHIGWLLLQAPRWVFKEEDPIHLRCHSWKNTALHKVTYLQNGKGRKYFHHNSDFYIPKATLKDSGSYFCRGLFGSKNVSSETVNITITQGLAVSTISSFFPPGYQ

- Specific FcγRIIIa binding activity: 8%
Substance: belantamab deglycosylated with PNGaseF (antibody)
